Measurements: the supplement of paper PMC10567573

B1: CAMK2B (parent)
chain: YQQIKAGAYDFPSPEWDTVTPEAK

Variants of: B1
Test: protein stability index of a GFP-peptide fusion (GPS, HEK-293T) (PSI 1-6); higher = more stable
Settings: c terminus: a fixed tail appended
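Note: lentivirally expressed fusions sorted by FACS into six bins by GFP to DsRed ratio, PSI derived from sequencing read proportions per bin multiplied by bin number.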

Protein stability index, by site and new letter:
A8: H 3.79 | I 3.05 | T 3.44 | E 3.95 | G 3.61 | Q 3.68 | C 3.44 | D 3.91 | V 3.16 | Y 3.31 | S 3.75 | K 3.66 | F 2.84 | N 3.95 | P 3.02 | W 2.26 | M 3.44 | R 3.14 | L 3.03
P12: S 3.29 | V 2.81 | W 3.5 | H 3.21 | K 3.3 | I 3.21 | A 2.94 | N 3.94 | L 2.9 | Y 3.71 | C 2.76 | T 3.36 | R 2.34 | D 4.01 | M 3.08 | F 2.25 | E 4.09 | Q 4 | G 3.71
V19: K 3.66 | F 1.97 | P 3.69 | R 2.99 | L 3.53 | H 4.01 | W 2.79 | Y 2.16 | A 3.48 | G 3.92 | S 3.59 | T 3.96 | Q 4.01 | C 3.82 | E 3.8 | M 3.95 | D 4.23 | N 3.97 | I 3.79
F11: Q 4.24 | E 4.72 | Y 3.95 | P 4.67 | I 3.8 | V 4.15 | W 3.15 | H 4.2 | N 4.37 | L 3.97 | S 4.36 | T 4.43 | R 3.73 | M 4.04 | A 4.58 | K 3.91 | D 4.63 | G 4 | C 4
W16: H 4.35 | N 4.55 | M 4.31 | R 3.54 | S 4.58 | D 4.79 | E 4.46 | G 4.35 | F 4.16 | L 4.36 | P 4.64 | C 4.18 | K 3.45 | V 4.2 | Q 4.28 | T 4.39 | Y 3.53 | A 4.07 | I 4.2
E15: Y 1.99 | Q 3.44 | A 2.93 | P 2.77 | D 3.86 | R 2.88 | W 2.21 | K 2.88 | H 2.91 | G 2.72 | L 2.52 | F 2.14 | C 2.42 | N 3.41 | S 3.39 | I 2.53 | T 2.67 | V 2.55 | M 2.77
S13: T 3.69 | C 2.74 | M 2.75 | K 3.4 | L 3.29 | R 3.29 | I 3.37 | A 3.24 | F 2.79 | G 4.11 | N 3.69 | D 4.08 | V 3.18 | E 4.12 | Q 2.9 | Y 3.6 | H 3.25 | W 2.8
I4: A 3.46 | F 3.19 | K 3.42 | V 3.93 | W 2.05 | T 3.58 | P 3.58 | Q 3.78 | Y 3.21 | N 3.41 | D 4.32 | M 3.66 | G 3.34 | R 3.06 | E 4.26 | C 3.09 | H 3.56 | S 3.02 | L 3.81
P14: I 3.4 | K 3.85 | Y 2.89 | R 3.37 | W 2.57 | T 3.82 | C 3.45 | M 3.55 | S 3.71 | H 3.65 | E 4.47 | V 3.39 | D 4.42 | N 3.88 | A 3.96 | G 4.03
